Substitutions are numbered along the chain they refer to. Names and notes keep the numbering of the source.
Assays:
[1] = target: atToc159-A864R (expressed from CaMV35S::atTOC159-A864R in ppi2 plants, A864R:ppi2) (Arabidopsis thaliana) (UniProt O81283); assay: cross-linking
[2] = substrate: Nc1nc2c(ncn2[C@@H]2O[C@H](COP(=O)(O)OP(=O)(O)OP(=O)(O)O)[C@@H](O)[C@H]2O)c(=O)[nH]1; assay: GTP hydrolysis assay, immunoprecipitated protein on Sepharose beads; type: biochemical, Arabidopsis thaliana; details: antibody/protein A-Sepharose-bound receptor
[3] = substrate: Nc1nc2c(ncn2[C@@H]2O[C@H](COP(=O)(O)OP(=O)(O)OP(=O)(O)O)[C@@H](O)[C@H]2O)c(=O)[nH]1; assay: GTP hydrolysis assay, purified soluble G-domain; type: biochemical, Arabidopsis thaliana

preSSu ([35S]-labeled chloroplast preprotein) (natural protein)
fold of coimmunoprecipitated preSSu against wild-type atToc159 [1]: 3 fold

B1: atToc159 (full-length) (Arabidopsis thaliana) (protein)
chain: MDSKSVTPEPTNPFYASSGQSGKTYASVVAAAAAAAADKEDGGAVSSAKELDSSSEAVSGNSDKVGADDLSDSEKEKPNLVGDGKVSDEVDGSLKEDSTTPEATPKPEVVSGETIGVDDVSSLSPKPEAVSDGVGVVEENKKVKEDVEDIKDDGESKIENGSVDVDVKQASTDGESESKVKDVEEEDVGTKKDDEGESELGGKVDVDDKSDNVIEEEGVELTDKGDVIVNSSPVESVHVDVAKPGVVVVGDAEGSEELKINADAETLEVANKFDQIGDDDSGEFEPVSDKAIEEVEEKFTSESDSIADSSKLESVDTSAVEPEVVAAESGSEPKDVEKANGLEKGMTYAEVIKAASAVADNGTKEEESVLGGIVDDAEEGVKLNNKGDFVVDSSAIEAVNVDVAKPGVVVVGDVEVSEVLETDGNIPDVHNKFDPIGQGEGGEVELESDKATEEGGGKLVSEGDSMVDSSVVDSVDADINVAEPGVVVVGAAKEAVIKEDDKDDEVDKTISNIEEPDDLTAAYDGNFELAVKEISEAAKVEPDEPKVGVEVEELPVSESLKVGSVDAEEDSIPAAESQFEVRKVVEGDSAEEDENKLPVEDIVSSREFSFGGKEVDQEPSGEGVTRVDGSESEEETEEMIFGSSEAAKQFLAELEKASSGIEAHSDEANISNNMSDRIDGQIVTDSDEDVDTEDEGEEKMFDTAALAALLKAATGGGSSEGGNFTITSQDGTKLFSMDRPAGLSSSLRPLKPAAAPRANRSNIFSNSNVTMADETEINLSEEEKQKLEKLQSLRVKFLRLLQRLGHSAEDSIAAQVLYRLALLAGRQAGQLFSLDAAKKKAVESEAEGNEELIFSLNILVLGKAGVGKSATINSILGNQIASIDAFGLSTTSVREISGTVNGVKITFIDTPGLKSAAMDQSTNAKMLSSVKKVMKKCPPDIVLYVDRLDTQTRDLNNLPLLRTITASLGTSIWKNAIVTLTHAASAPPDGPSGTPLSYDVFVAQCSHIVQQSIGQAVGDLRLMNPSLMNPVSLVENHPLCRKNREGVKVLPNGQTWRSQLLLLCYSLKVLSETNSLLRPQEPLDHRKVFGFRVRSPPLPYLLSWLLQSRAHPKLPGDQGGDSVDSDIEIDDVSDSEQEDGEDDEYDQLPPFKPLRKTQLAKLSNEQRKAYFEEYDYRVKLLQKKQWREELKRMKEMKKNGKKLGESEFGYPGEEDDPENGAPAAVPVPLPDMVLPPSFDSDNSAYRYRYLEPTSQLLTRPVLDTHGWDHDCGYDGVNAEHSLALASRFPATATVQVTKDKKEFNIHLDSSVSAKHGENGSTMAGFDIQNVGKQLAYVVRGETKFKNLRKNKTTVGGSVTFLGENIATGVKLEDQIALGKRLVLVGSTGTMRSQGDSAYGANLEVRLREADFPIGQDQSSFGLSLVKWRGDLALGANLQSQVSVGRNSKIALRAGLNNKMSGQITVRTSSSDQLQIALTAILPIAMSIYKSIRPEATNDKYSMY
Km [2]: 3.2 ± 0.34 µM | kcat [2]: 0.014 ± 0.0022 min⁻¹

B2: atToc159 G-domain (atToc159G) (Arabidopsis thaliana) (protein)
chain: IFSLNILVLGKAGVGKSATINSILGNQIASIDAFGLSTTSVREISGTVNGVKITFIDTPGLKSAAMDQSTNAKMLSSVKKVMKKCPPDIVLYVDRLDTQTRDLNNLPLLRTITASLGTSIWKNAIVTLTHAASAPPDGPSGTPLSYDVFVAQCSHIVQQSIGQAVGDLRLMNPSLMNPVSLVENHPLCRKNREGVKVLPNGQTWRSQLLLLCYSLKVLSETNSLLRPQEPLDHRK
Km [3]: 9.0 ± 1.35 µM | kcat [3]: 0.019 ± 0.0015 min⁻¹

B3: atToc159 (full-length) (Arabidopsis thaliana; A864R) (protein)
chain: B1 chain with A864R
Km [2]: 1.9 ± 0.30 µM | kcat [2]: 0.0042 ± 0.0001 min⁻¹

Reference: paper PMC2557045
